System: K4 kissing-loop RNA reporter
Test: apparent KD of K4 kissing-loop reporter; higher = weaker reporter binding
Settings: Eterna round: R107
Experimental: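 RNA-MaP round R107: designed RNA switches with theophylline, tryptophan, arginine or FMN aptamers are transcribed on-chip within common flanks. They are titrated with a labelled K4 kissing-loop RNA reporter in RNA-MaP buffer (100 mM Tris pH 7.5, 80 mM KCl, 4 mM MgCl2), without ligand or with the indicated ligand. Median apparent KD per design.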

[1] = input ligand: theophylline 20 uM
[2] = input ligand: tryptophan 2.4 mM
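Further: bound reporter read as fluorescence of individual clusters on recovered sequencing chips by microscopy, with normalized cluster intensities fitted with a binding model.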

Sequence | apparent KD of K4 kissing-loop reporter (input ligand: FMN 200 uM) | apparent KD of K4 kissing-loop reporter (input ligand: arginine 13.2 mM) | apparent KD of K4 kissing-loop reporter (input ligand: none) | apparent KD of K4 kissing-loop reporter [1] | apparent KD of K4 kissing-loop reporter [2]
GUGGUUUACGUAGGAUAUCGAUGAUGAGUAAAUGGAGUGAUGUUCCGAGAUUGAAUAUGAGAUGAGCGAGAAGGGCGGUUUAUGC [FMN B Same State; Euporia Solution 2] | 32.8 nM | 36.9 nM | 31.4 nM | 37.3 nM | 29.5 nM
GUUAAAUAAAUGGGCAUAGUGAUGUUGUGUCGAGGACCGGUACGGCCGCCACUCGAGCUAGCAUGCCGGUCAUUAUGGGUAGUUU [theeternabot_exclusion_KL_Trp_A_46] | 112 nM | 118 nM | 142 nM | 132 nM | 219 nM
ACUGAGCAUGCGGCCGCCACUUCAGAACGUCGCCCAAAGGGCGACGCCUCCAGAGUGAUGUUCUGGAGGACCGGGCAUGUUCAGA [Omei KL Tryp B Exc A v1] | 540 nM | 300 nM | 506 nM | 450 nM | 112 nM
UUUCGCUUCGUCUGAUAUAAUUGGCCAGAAGGAGCGGUAGAAUUACCAGGUAGGUCGCUGGCCCAGUGAUGUUGGGACUAGCGUG [Isrianve] | 118 nM | 103 nM | 104 nM | 107 nM | 94.1 nM
UGUGAACAAAAGUAGAGUGGACCACUAUAGCGAGGACCGGUACGGCCGCCACUCGUACAUGAAUUCAGUGAUGUUGAAAAGAGCU [whbob_EX_Tryp_A_t13] | 294 nM | 413 nM | 307 nM | 400 nM | 209 nM
GUGCGGUGGAGGCUACCGCUACUCUGAGAAGGAGCGCAGAUGACUGCAGGUAGGUCGCUUAGAGCUUGCAGUGAUGUUGCAAGUU [Teorzaqu] | 166 nM | 157 nM | 188 nM | 132 nM | 140 nM
GAAUUAUGUAGAAGGAGCGUCAGAAGGUAUAGGUGCGAGUGAUGUUUGGACCUGUUAAUUUGACAGGUAGGUCGCUACAGAAGGA [KL-SSArg B20 #analogue] | 533 nM | 291 nM | 448 nM | 304 nM | 320 nM
AGCGCUGCCUGAGGAUAUAGAGACGAGUGAUGUUCGUGGAUUGAUACCAGUGAUGUUGGUCUAUUUCUAGAAGGCAGGCGAUCGU [Exclusion FMN B GF 3] | 131 nM | 85.6 nM | 103 nM | 105 nM | 103 nM
CAUAGGAAACUAUGUAUCUCUCUUACUGAAGGAGCGCGUGAAAACGCAGGUAGGUCGCAGAAUUUAAAAGAGAGUGAUGUUCUCU [Ex Arginine A K4 8] | 358 nM | 253 nM | 332 nM | 247 nM | 301 nM
AAUAGGGAUAGUGAUGUUAUCCCUUAUGAUACCAGUGCCAUCGGACACCCUUGGCAGCAUACGGGCAGUGAUGUUGUUCUUGGAG [Exclusion Theophylline A GF 15] | 103 nM | 75.5 nM | 78.6 nM | 76.5 nM | 79.3 nM
UGAUAGGACAGAAGGAGCGGAGCUGGUCAAAGACCAGCAAUACGUUGAAAAGGAGUGAUGUUCCAGGUAGGUCGCUGUCCUAUCU [ArgBX 27 #SwitchBubble #StaticStem] | 93.5 nM | 103 nM | 106 nM | 133 nM | 85.2 nM
GCCGUAGAUUGAAGGAGCGGUUCAUCAAUUCAAGUCGAGUGAUGUUCGACGAUUCUCAGUAACCAGGUAGGUCGCAAUCUACGGC | 175 nM | 142 nM | 150 nM | 171 nM | 143 nM
AAAGAGUCACUCGAAGCCAUCGAAGAUGGGCGAGGACCGGUACGGCCGCCACUCGGAGUGAUGUUCCGAAGACUGUAAAAUAAAA [MatMod 11 - Jieux - Exclusion - Tryptophan A] | 273 nM | 242 nM | 451 nM | 362 nM | 355 nM
AGACUACCACACUGUCAAUAGACAGUGAGCUAGGAUAUGCUGAUAAGCAGAAGGAGUGAUGUUCCCAGGUAGUCAAUAAAAUAAU [FmnAX 13 G29+C66] | 272 nM | 192 nM | 231 nM | 302 nM | 238 nM
UGACUGGACUGAAGGAGCGCUUAACUCCUAGUGAUGUUAGGAAAACGAGACAAAGUCUCGAAGCAGGUAGGUCGCAGUCUAGUCU | 152 nM | 123 nM | 151 nM | 158 nM | 132 nM
CUCGUGGGUUUGAGAGGGUUUGUGGGAAGUGAGGAUAUUUAGGGAGAAAGAAGGCACUAUAAAAUAUAGUGAUGUUAUAUAAGGG [SSFMNA.L] | 277 nM | 141 nM | 325 nM | 194 nM | 198 nM
AAUGGCGAGUGAUGUUCGCCCACCAAUGAUACCAGUGCCAUCGGACACCCUUGGCAGCAUACGGGCAGUGAUGUUGCUCUUGGAA [Exclusion Theophylline A GF 26] | 185 nM | 181 nM | 193 nM | 200 nM | 177 nM
CAGAUCACAGAGUGAUGUUCUGUGUCCGAAGGAGCGCGCGAGAGCGCAGGUAGGUCGCGGAUACAGUUGACGUACCAUCUAGACA [Arg A Ex t3b] | 306 nM | 244 nM | 278 nM | 246 nM | 269 nM
GCUAAGUGAUGUUUAUGCCGCCGACCGGAUACCAGCUACUAGGCAAGCCCUUGGCAGCCGCUAUGUGACCGAUCAUUAGUUAUGU [theeternabot_exclusion_KL_Theo_A_6] | 857 nM | 734 nM | 913 nM | 790 nM | 682 nM
AUUUUGGUUUAGAGUGAUGUUCCUUGUAUUCGAGGACCGGUACGGCCGCCACUCGAAUAGAAAAGAAAAGAAAUGUUUGAUGUUU [BDazzled - #6 SS Tryptophan A] | 551 nM | 193 nM | 537 nM | 274 nM | 393 nM
UGGCGACUGCCAGUGAUGUUGGCCGUCGUACGAGGACCGGUACGGCCGCCACUCGUCCUGGUUUAGGCUCCGCCUUCACAUCAGG [Beterire] | 401 nM | 326 nM | 393 nM | 784 nM | 309 nM
UCCUGCAAUCCACCACGAAAGUGGAUGGAUACCAGAGUCGAAAGACUCCCUUGGCAGCCAGUGAUGUUGGAGCAGGUAAAAUAAA | 526 nM | 532 nM | 630 nM | 402 nM | 473 nM

Sequence | apparent KD of K4 kissing-loop reporter (input ligand: FMN 200 uM) | apparent KD of K4 kissing-loop reporter (input ligand: arginine 13.2 mM) | apparent KD of K4 kissing-loop reporter (input ligand: none) | apparent KD of K4 kissing-loop reporter [1] | apparent KD of K4 kissing-loop reporter [2]
AUUUAAUGUAUAGAUUAUAUACAUAAUUCAGAGGAUAUGCGAAGAAGCAGAAGGCUGGUUGCAGUGAUGUUGCUUUUAUAAUUUA [JR_SSFMNA_Sub009] | 32.8 nM | 152 nM | 85.9 nM | 171 nM | 59.9 nM
AAAAUAAACCAGUGAUGUUGGUGUCUAGAUACCAGCGACGAAAGUCGCCCUUGGCAGCUGUGGACGUACAAAAUAAGUACGUCCU [MatMod 5 - Jieux - Same State - Theophylline A] | 564 nM | 327 nM | 541 nM | 480 nM | 472 nM
ACGCAUGGGCAAGGAUAUGGUAGUGAUGUUACCUUUGCGGUGCCGGGAACGAAUGACGGUCAUGCGCCAGAAGGUGCUCAGACAA [theeternabot_exclusion_KL_FMN_B_23] | 203 nM | 180 nM | 178 nM | 250 nM | 183 nM
CGACGCCGGUCGGCCGCCACUCACAGCAGCCAGUGAUGUUGGAUUGUAGCGGAGUGAUGUUUCGCGAGGACCGGGACUGCAGUCG [Same State Tryptophan B GF 12] | 167 nM | 131 nM | 129 nM | 130 nM | 143 nM
CCUAUCUCGUACGAUACCAGUCAAUGAUCUUUGAUCAAUGCCAUCACCGAGUGAUGUUCGGACCCUUGGCAGCGUAUGAGAUGGG [whbob_Ex_Theo_B_sa105] | 272 nM | 207 nM | 251 nM | 386 nM | 242 nM
AAGCAGUCACUCGAAUCCAUCGAAGAUGGGCGAGGACCGGUACGGCCGCCACUCGGAGUGAUGUUCCAAAGACUGCAAAAUAAAA | 451 nM | 378 nM | 306 nM | 550 nM | 136 nM
CCAGGACGAUGAGGAGGAUGAAUUACUGAAGGAGCGCAUAUGGUUGCAGGUAGGUCGCGGUGAACAAGUAUAGUGAUGUUAUAUC [SSArgA.S] | 365 nM | 971 nM | 538 nM | 321 nM | 321 nM
AGAGUUAUAUGAGGAUAUGGGAUAGUAAAUGAGUGAGUUAUAGUGUAGUUUGUUUAGUGAUGUUAUUUAGAAGGCGUGAGUGAUG [dgnnmullin] | 193 nM | 114 nM | 100 nM | 113 nM | 86.4 nM
AGGAGUGAUGUUCCUACAUACACGGUCCGACGAGGACCGGUACGGCCGCCACUCGCGUCCCAGUGAUGUUGGGAUUUGGCGUACG [Exclusion Tryptophan A GF 17] | 162 nM | 155 nM | 155 nM | 171 nM | 154 nM
UGGAGUUGACGAAAAGUCAACUCCUGAGAUACCAGUGACGAAAGUCACCCUUGGCAGCUCACUGCCAGUGAUGUUGGUUCAUAAG [#03 K4 Theophylline A Same State] | 223 nM | 197 nM | 152 nM | 245 nM | 142 nM
AGGAUCCGUCGACAAAAGUCGACAUAAACCGAGGAUAUGACGAAAGUCAGAAGGUGGUCAUAAGACCAGUGAUGUUGGUGGAUCC [FmnA 14 #SwitchBubble #K4Late] | 1250 nM | 282 nM | 494 nM | 318 nM | 305 nM
AUGUAUGAAUUAGGAUAUCGUGAGCCAUGCAUAUAUAUGAUAAAUGGAUAUGUCGUAGUGAUGUUACGAGAAGGAGUGUGGAGUA [KL-XFMN-B2] | 69.2 nM | 73.6 nM | 74.7 nM | 90 nM | 50.6 nM
UAUUAAUUGUCAGGAUAUCGUAUUCGAGUGAUGUUCGUAUAUCGACGAUAGUCGAUAUUAUCUAUACGAGAAGGGACAUUAUUUA [JR_SSFMNB_Sub006] | 418 nM | 334 nM | 477 nM | 341 nM | 379 nM
UCGAAGGAUGGAAGGAGCGCUCGUCAGUCCUGCGAGUGAUGUUCGUGGGUAAAUAGUCGCGAGCAGGUAGGUCGCCAUCUUGAGC [Laxe] | 139 nM | 102 nM | 114 nM | 126 nM | 109 nM
CCUGCAGCUGUUACCGAGGGAUGCUACGGACGAGGACCGGUACGGCCGCCACUCGCCAGUGAUGUUGGUGAGGGAGGACGUUCCU [Georte] | 100 nM | 106 nM | 150 nM | 172 nM | 148 nM
GAUUCAGUGAUGUUGGAAGGCGAGCGGGAUACCAGCCAAGACUCAGGCCCUUGGCAGCCCACAUAUCCCAGGUAGAUAGUCGCUC [Same State - Theophylline A (Freestyle 11)] | 271 nM | 265 nM | 254 nM | 293 nM | 270 nM
GUCUGCUGUAUCGAUACCAGAAGUGGGCAGUGAUGUUGUUCGGGUACAUCGCGUCUCGAGUUCCCUUGGCAGCGAUUGUACGAAU [theeternabot_exclusion_KL_Theo_B_12] | 533 nM | 571 nM | 694 nM | 835 nM | 524 nM
ACCUACGAUCACAAAAGUGAUUGUAGGAUCUAGGAUAUGCUGAAAAGCAGAAGGAGAGUGAUGUUCUCAACUCACGAAAGUGAGA [FmnAX 1 #OpenEnded #K4Late] | 354 nM | 184 nM | 183 nM | 182 nM | 173 nM
GUGAUAUCGCAAGGAUAUCCAAUUUCUGCGGAUAAGUGAUGUUUGGCGCCGCCUCAGUUAUGGCAAGGAGAAGGUGCGGCCUAGC [theeternabot_sameState_KL_FMN_B_28] | 473 nM | 286 nM | 428 nM | 366 nM | 383 nM
AAUACCUGAGUGAUGUUCAGGGAAUCAGAAGGAGCGUCAAUUAUGACAGGUAGGUCGCUGAAUACAUGUGUGUAUACACAUGUAC [Arg A SS t4] | 217 nM | 189 nM | 278 nM | 243 nM | 229 nM
GGACGCCGGUCGGCCGCCACUCACAGCAGUGAUGUUCCUGAGAAUGUAGCGGAGUGAUGUUCCGAGAGGACCGGGACUGCAGUUU [Same State Tryptophan B GF 8] | 799 nM | 644 nM | 777 nM | 875 nM | 840 nM
